Measured values: paper PMC10778174

Target: BG505-SOSIP trimer Env (subtype A) (HIV-1 (subtype A, BG505))
Assay: SEC + other: negative-stain EM; gel-filtration and negative-stain EM of the purified BG505 SOSIP; conditions not given

Work on “BG505-SOSIP trimer Env (subtype A) (complex)” yielded a stoichiometry N of 3.
